According to US20260275312, “CRISPR NUCLEASE POLYPEPTIDES AND GENE EDITING SYSTEMS COMPRISING SUCH” (ARBOR BIOTECHNOLOGIES, INC., published 2026):

Molecular target: T1, Nuclease W S925R/E715R/A65R (synthetic construct, S925R,E715R,A65R)
T1 chain: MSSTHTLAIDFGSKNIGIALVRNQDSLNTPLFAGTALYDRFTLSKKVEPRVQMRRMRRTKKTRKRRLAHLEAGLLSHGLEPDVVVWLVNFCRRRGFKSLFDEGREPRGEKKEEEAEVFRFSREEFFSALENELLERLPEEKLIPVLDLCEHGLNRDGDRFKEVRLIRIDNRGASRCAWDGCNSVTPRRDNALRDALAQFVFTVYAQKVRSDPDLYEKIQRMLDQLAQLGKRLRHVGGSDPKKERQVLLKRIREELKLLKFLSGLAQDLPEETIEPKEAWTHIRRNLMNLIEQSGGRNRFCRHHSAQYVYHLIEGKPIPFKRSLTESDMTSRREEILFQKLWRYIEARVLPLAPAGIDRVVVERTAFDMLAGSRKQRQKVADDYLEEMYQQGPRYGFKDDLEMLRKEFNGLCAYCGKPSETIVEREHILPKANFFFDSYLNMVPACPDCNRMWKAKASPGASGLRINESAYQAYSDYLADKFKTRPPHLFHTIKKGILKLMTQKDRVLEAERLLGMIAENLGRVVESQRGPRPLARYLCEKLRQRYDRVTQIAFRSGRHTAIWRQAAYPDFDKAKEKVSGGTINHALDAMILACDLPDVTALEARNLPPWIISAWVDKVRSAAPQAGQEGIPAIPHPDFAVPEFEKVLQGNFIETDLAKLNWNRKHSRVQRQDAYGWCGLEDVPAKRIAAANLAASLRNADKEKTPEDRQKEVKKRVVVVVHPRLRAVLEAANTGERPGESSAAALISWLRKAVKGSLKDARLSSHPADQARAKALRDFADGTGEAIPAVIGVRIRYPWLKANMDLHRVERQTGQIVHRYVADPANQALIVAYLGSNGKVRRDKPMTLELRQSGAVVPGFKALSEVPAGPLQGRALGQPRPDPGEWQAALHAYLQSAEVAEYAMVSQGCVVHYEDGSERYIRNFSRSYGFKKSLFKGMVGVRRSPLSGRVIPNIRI
Experiment: cell_activity; HEK293T; PAM AAA
Conditions: tags: N-term SV40 NLS, XTEN linker + C-term nucleoplasmin NLS
Description: Approximately 16 hours prior to transfection, 25,000 HEK293T cells in DMEM/10% FBS+Pen/Strep (D10 media) were plated into each well of a 96-well plate. On the day of transfection, the cells were 50-90% confluent. For each well to be transfected, a mixture of Lipofectamine 2000™ (ThermoFisher Scientific) and Opti-MEM™ (ThermoFisher Scientific) was prepared and incubated at room temperature for 5 minutes (Solution 1). After incubation, the Lipofectamine 2000™:Opti-MEM™ mixture was added to a separate mixture containing the CRISPR nuclease plasmid (NLS-tagged), RNA guide plasmid, and Opti-MEM™ (Solution 2). In the case of negative controls, the CRISPR nuclease plasmid was excluded. Solutions 1 and 2 were mixed by pipetting up and down, then incubated at room temperature for 25 minutes. Following incubation, the Solution 1 and 2 mixture was added dropwise to each well of a 96-well plate containing the cells. […]
Each Nuclease W variant was cloned as described in Example 2. […] For each target, indel ratios, referring to the percentage of NGS reads comprising indels, were calculated for the reference Nuclease W (SEQ ID NO: 1) and for each Nuclease W variant. The indel ratios shown in Table 5 were calculated as the average of two bioreplicates, each of which contained two technical replicates.

B1: W EMX1-T5 RNA guide ; EMX1-T5 target (W) (ssRNA ; dsDNA)
RNA: UAAACUACAGUGGUGCCUGGGUUUCAGCUACCCUGAGUUUCUCAACUCCGUUGAGACUUCCUCAGGUUCAAGCUGAAAAGAGCAUCUGUCCGGAAGGACCACUCCGGGUUAGGGCAGACCCGGCUCUUGGGCUUCCUUGGUCUUUGACUCUGGAGGAAACCUUCCGGCGUGUCGCAAGACAAGAUGUGAGCCUG
DNA 1: TAAACTACAGTGGTGCCTGG
DNA 2: CCAGGCACCACTGTAGTTTA
binding signal: 4.84 fold indel vs reference
